According to the Immune Epitope Database (IEDB):

What was measured:
HLA-A*02:01 [1] = test: IEDB peptide-MHC binding, purified MHC/direct/fluorescence; filed as Kd, often an IC50 or EC50 that approximates it; ≥ and ≤ were set here for values at or beyond the usual limits of such assays
HLA-A*31:01 = test: as above
HLA-A*69:01 [2] = test: as above
HLA-C*14:02 = test: as above
HLA-B*07:02 = test: IEDB peptide-MHC binding, purified MHC/competitive/fluorescence; filed as Kd, often an IC50 or EC50 that approximates it; ≥ and ≤ were set here for values at or beyond the usual limits of such assays
HLA-A*02:01 [3] = test: IEDB peptide-MHC binding, purified MHC/competitive/radioactivity; ≥ and ≤ were set here for values at or beyond the usual limits of such assays
HLA-C*06:02 = test: IEDB peptide-MHC binding, purified MHC/direct/fluorescence; filed as Kd, often an IC50 or EC50 that approximates it; ≥ and ≤ were set here for values at or beyond the usual limits of such assays
HLA-C*15:02 = test: as above
HLA-C*12:03 = test: as above
HLA-A*23:01 [4] = test: IEDB peptide-MHC binding, purified MHC/competitive/fluorescence; filed as Kd, often an IC50 or EC50 that approximates it; ≥ and ≤ were set here for values at or beyond the usual limits of such assays
HLA-B*35:01 = test: as above; conditions: source organism: Camelpox virus M-96
HLA-C*03:03 = test: IEDB peptide-MHC binding, purified MHC/direct/fluorescence; filed as Kd, often an IC50 or EC50 that approximates it; ≥ and ≤ were set here for values at or beyond the usual limits of such assays
HLA-A*02:03 = test: as above; conditions: source organism: Variola virus
HLA-C*05:01 = test: as above
HLA-B*15:01 = test: IEDB peptide-MHC binding, purified MHC/competitive/fluorescence; filed as Kd, often an IC50 or EC50 that approximates it; ≥ and ≤ were set here for values at or beyond the usual limits of such assays; conditions: source organism: Orthomarburgvirus marburgense
HLA-A*26:02 = test: as above; conditions: source organism: Orthomarburgvirus marburgense
HLA-A*30:01 = test: as above; conditions: source organism: Orthomarburgvirus marburgense
HLA-B*58:01 = test: IEDB peptide-MHC binding, purified MHC/direct/fluorescence; filed as Kd, often an IC50 or EC50 that approximates it; ≥ and ≤ were set here for values at or beyond the usual limits of such assays; conditions: source organism: Marburg virus - Musoke, Kenya, 1980
HLA-B*57:01 [5] = test: as above; conditions: source organism: Marburg virus - Musoke, Kenya, 1980
HLA-B*08:01 = test: as above; conditions: source organism: Marburg virus - Musoke, Kenya, 1980
HLA-A*11:01 = test: as above; conditions: source organism: Marburg virus - Musoke, Kenya, 1980
HLA-A*01:01 = test: as above; conditions: source organism: Marburg virus - Musoke, Kenya, 1980
HLA-B*18:01 [6] = test: as above; conditions: source organism: Marburg virus - Musoke, Kenya, 1980
HLA-B*15:17 [7] = test: as above; conditions: source organism: Marburg virus - Musoke, Kenya, 1980
HLA-B*46:01 = test: IEDB peptide-MHC binding, purified MHC/competitive/fluorescence; filed as Kd, often an IC50 or EC50 that approximates it; ≥ and ≤ were set here for values at or beyond the usual limits of such assays
HLA-A*24:03 [8] = test: IEDB peptide-MHC binding, purified MHC/direct/fluorescence; filed as Kd, often an IC50 or EC50 that approximates it; ≥ and ≤ were set here for values at or beyond the usual limits of such assays; conditions: source organism: Vibrio cholerae
HLA-A*23:01 [9] = test: as above; conditions: source organism: Vibrio cholerae
HLA-C*07:02 = test: as above; conditions: source organism: Vibrio cholerae AM-19226
HLA-B*15:42 = test: IEDB peptide-MHC binding, purified MHC/competitive/fluorescence; filed as Kd, often an IC50 or EC50 that approximates it; ≥ and ≤ were set here for values at or beyond the usual limits of such assays; conditions: source organism: Mycobacterium tuberculosis C
HLA-B*45:06 = test: as above; conditions: source organism: Mycobacterium tuberculosis C
HLA-B*83:01 = test: as above; conditions: source organism: Mycobacterium tuberculosis C
HLA-A*24:03 [10] = test: as above; conditions: source organism: Streptococcus pneumoniae TIGR4
HLA-A*02:01 [11] = test: as above; conditions: source organism: Streptococcus pneumoniae TIGR4
HLA-B*57:01 [12] = test: as above; conditions: source organism: Streptococcus pneumoniae TIGR4
HLA-A*03:01 = test: as above; conditions: source organism: Streptococcus pneumoniae TIGR4
HLA-A*68:02 = test: as above; conditions: source organism: Streptococcus pneumoniae TIGR4
HLA-A*29:02 = test: as above; conditions: source organism: Streptococcus pneumoniae TIGR4
HLA-B*51:01 = test: as above; conditions: source organism: Streptococcus pneumoniae TIGR4
HLA-A*69:01 [13] = test: as above; conditions: source organism: Streptococcus pneumoniae TIGR4
HLA-A*26:01 = test: as above; conditions: source organism: Streptococcus pneumoniae TIGR4
HLA-B*27:03 = test: as above; conditions: source organism: Streptococcus pneumoniae TIGR4
HLA-B*18:01 [14] = test: as above; conditions: source organism: Streptococcus pneumoniae TIGR4
HLA-B*15:17 [15] = test: as above; conditions: source organism: Streptococcus pneumoniae TIGR4
[16] = source organism: Pseudomonas aeruginosa
[17] = source organism: Rickettsia massiliae MTU5
[18] = source organism: Camelpox virus CMS
[19] = source organism: Camelpox virus M-96
[20] = source organism: Marburg virus - Musoke, Kenya, 1980
[21] = source organism: Vibrio cholerae AM-19226
[22] = source organism: Streptococcus pneumoniae TIGR4

Sequence AYFATPASV has a Kd (HLA-A*02:01 [1]; [16]) of 2270 nM, a Kd (HLA-A*31:01; [16]) of 207 nM and a Kd (HLA-A*69:01 [2]; [16]) of 4370 nM. The Kd (HLA-C*14:02; source organism: Pseudomonas aeruginosa 2192) was ≤ 1 nM.

For EIRTFSFQL, the Kd (HLA-B*07:02; source organism: Influenza A virus (A/duck/England/1/1956(H11N6))) was ≥ 20000 nM.

For FLPVDFFPSI, the IC50 (HLA-A*02:01 [3]; source organism: Hepatitis B virus) was 35 nM.

With FMRFAFLSM the Kd (HLA-C*06:02; [17]) was ≥ 20000 nM, the Kd (HLA-C*15:02; [17]) was ≥ 20000 nM and the Kd (HLA-C*12:03; [17]) was 894 nM.

With GLIDIAPHQISS the IC50 (HLA-A*02:01 [3]; source organism: Mycobacterium tuberculosis H37Ra) was 173 nM.

For HMTEVVRRC, the IC50 (HLA-A*02:01 [3]; source organism: Homo sapiens) was 10200 nM.

ILDAHSLYL gave an IC50 (HLA-A*02:01 [3]; source organism: Rift Valley fever virus) of 1.3 nM.

IWQWIHHEK gave a Kd (HLA-A*23:01 [4]; source organism: Salmonella enterica subsp. enterica serovar Typhi) of 178 nM.

KINIFMAFL was tested, and the Kd (HLA-C*14:02; source organism: Taterapox virus) was ≥ 20000 nM.

LMDENTYAM was tested, and the Kd (HLA-B*35:01) was 0.2 nM, the Kd (HLA-A*02:01 [1]; [18]) was ≤ 1 nM and the Kd (HLA-C*03:03; [19]) was 592 nM. It also gave a Kd (HLA-A*02:03) of 20 nM, a Kd (HLA-C*05:01; [19]) of 7 nM and a Kd (HLA-A*69:01 [2]; [18]) of 57.8 nM. For the same sequence, the Kd (HLA-C*12:03; [19]) was ≥ 20000 nM.

With QGKQHLHSL the Kd (HLA-B*07:02; source organism: Orthomarburgvirus marburgense) was ≥ 20000 nM, the Kd (HLA-B*15:01) was 4000 nM and the Kd (HLA-A*26:02) was ≥ 20000 nM. The Kd (HLA-A*30:01) was ≥ 20000 nM, the Kd (HLA-B*58:01) was ≥ 20000 nM and the Kd (HLA-A*31:01; [20]) was ≥ 20000 nM. The Kd (HLA-B*57:01 [5]) was ≥ 20000 nM, the Kd (HLA-B*08:01) was 212 nM and the Kd (HLA-A*69:01 [2]; [20]) was ≥ 20000 nM. For the same sequence, the Kd (HLA-A*11:01) was ≥ 20000 nM, the Kd (HLA-A*01:01) was ≥ 20000 nM and the Kd (HLA-B*18:01 [6]) was ≥ 20000 nM. The Kd (HLA-B*15:17 [7]) was ≥ 20000 nM.

Sequence SPYNSRFESV has a Kd (HLA-B*07:02; source organism: Influenza A virus) of 3.4 nM.

For VLMAVVLASL, the IC50 (HLA-A*02:01 [3]; source organism: Homo sapiens) was 45.7 nM.

In the case of YALPSAGAF, the Kd (HLA-B*46:01; [21]) is reported as 34.5 nM, the Kd (HLA-A*24:03 [8]) is reported as 290 nM and the Kd (HLA-C*03:03; [21]) is reported as ≤ 1 nM. It also gave a Kd (HLA-A*23:01 [9]) of 445 nM, a Kd (HLA-C*07:02) of 404 nM and a Kd (HLA-C*15:02; [21]) of 386 nM. It also gave a Kd (HLA-C*14:02; [21]) of 46 nM.

YPRNGWPAL was tested, and the Kd (HLA-B*15:42) was ≥ 5000 nM, the Kd (HLA-B*45:06) was ≥ 5000 nM and the Kd (HLA-B*83:01) was 34.9 nM. For the same sequence, the Kd (HLA-C*05:01; source organism: Mycobacterium tuberculosis C) was ≥ 20000 nM.

In the case of YQVEGATRV, the Kd (HLA-A*24:03 [10]) is reported as ≥ 20000 nM, the Kd (HLA-A*02:01 [11]) is reported as 1.7 nM and the Kd (HLA-B*57:01 [12]) is reported as ≥ 20000 nM. For the same sequence, the Kd (HLA-A*03:01) was ≥ 20000 nM, the Kd (HLA-A*23:01 [4]; [22]) was ≥ 20000 nM and the Kd (HLA-A*68:02) was ≥ 20000 nM. For the same sequence, the Kd (HLA-A*29:02) was ≥ 20000 nM, the Kd (HLA-B*51:01) was ≥ 20000 nM and the Kd (HLA-A*69:01 [13]) was ≥ 20000 nM. For the same sequence, the Kd (HLA-A*26:01) was ≥ 20000 nM, the Kd (HLA-B*27:03) was ≥ 20000 nM and the Kd (HLA-B*18:01 [14]) was ≥ 20000 nM. For the same sequence, the Kd (HLA-B*15:17 [15]) was ≥ 20000 nM and the Kd (HLA-B*46:01; [22]) was ≥ 20000 nM.

With YRYSLSSDL the Kd (HLA-C*06:02; source organism: Vaccinia virus WR) was 4 nM.
